Laboratory results taken from patent US20220144961A1 (XYENCE THERAPEUTICS, published 2022).
Positions count from the first letter of the chain named.

T1: mouse CD27 (mouse, UniProt P41272 24-182, limits assumed)
T1 construct: The construct is not described; also called murine CD27
T1 sequence (looked up): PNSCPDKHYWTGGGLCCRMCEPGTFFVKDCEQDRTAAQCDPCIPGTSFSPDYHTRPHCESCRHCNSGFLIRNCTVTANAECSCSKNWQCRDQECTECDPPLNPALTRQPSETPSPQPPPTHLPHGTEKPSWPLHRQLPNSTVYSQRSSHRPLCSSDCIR

B1: TP6 (antibody, V domains shown)
VH: QVQLVESGGGVVQPGRSLRLSCAASGFTFSSYAMHWVRQAPGKGLEWVAVISYDGSNKYYADSVKGRFTISRDNSKNTLYLQMNSLRAEDTAVYYCARGYQGGYSNFDLWGQGTLVTVSS
VL: DIQMTQSPSTLSASVGDRVTITCRASQSISSWLAWYQQKPGKAPKLLIYDASSLESGVPSRFSGSGSGTDFTLTISSLQPEDFATYYCQQSYSTPYTFGQGTKLEIK
notes: also called TP06
B2: TP25 (antibody, V domains shown)
VH: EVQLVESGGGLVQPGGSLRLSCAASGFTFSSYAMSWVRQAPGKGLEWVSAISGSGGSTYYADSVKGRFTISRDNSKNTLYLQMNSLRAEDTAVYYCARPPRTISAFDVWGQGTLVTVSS
VL: QSVVTQPPSVSGAPGQRVTISCTGSSSNIGAGYDVHWYQQLPGTAPKLLIYGNSNRPSGVPDRFSGSKSGTSASLAITGLQAEDEADYYCQSYDSSLSGYVFGTGTKVTVL
B3: TP1 (antibody, V domains shown)
VH: QVQLVESGGGVVQPGRSLRLSCAASGFTFSSYAMHWVRQAPGKGLEWVAVISYDGSNKYYADSVKGRFTISRDNSKNTLYLQMNSLRAEDTAVYYCARAGSSGYAYYGMDVWGQGTLVTVSS
VL: not shown
notes: Clone of the screen; also called TP01
B4: TP24 (antibody, V domains shown)
VH: QVQLVESGGGVVQPGRSLRLSCAASGFTFSSYAMHWVRQAPGKGLEWVAVISYDGSNKYYADSVKGRFTISRDNSKNTLYLQMNSLRAEDTAVYYCARPVRTISAFDVWGQGTLVTVSS
VL: QSVVTQPPSVSGAPGQRVTISCTGSSSNIGAGYDVHWYQQLPGTAPKLLIYGNSNRPSGVPDRFSGSKSGTSASLAITGLQAEDEADYYCGTWDSSLSAGYVFGTGTKVTVL
notes: Clone of the screen
B5: TP5 (antibody, V domains shown)
VH: B4 VH with P99V, V100F, R101Y, T102G, I103Y, S104A, A105P
VL: B1 VL with D70E, E81D
notes: Clone of the screen; also called TP05
B6: TP9 (antibody, V domains shown)
VH: B1 VH with G99A, Y100V, Q101P, G102Y, G103V, S105Y, N106G, F107M, L109V
VL: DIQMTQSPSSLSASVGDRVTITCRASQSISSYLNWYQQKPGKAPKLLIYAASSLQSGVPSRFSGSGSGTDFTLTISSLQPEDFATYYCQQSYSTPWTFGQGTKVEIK
notes: Clone of the screen; also called TP09
B7: TP21 (antibody, V domains shown)
VH: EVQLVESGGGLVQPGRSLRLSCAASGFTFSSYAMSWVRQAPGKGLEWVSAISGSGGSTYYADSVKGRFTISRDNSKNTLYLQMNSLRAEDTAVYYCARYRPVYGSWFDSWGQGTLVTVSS
VL: B2 VL
notes: Clone of the screen
B8: TP28 (antibody, V domains shown)
VH: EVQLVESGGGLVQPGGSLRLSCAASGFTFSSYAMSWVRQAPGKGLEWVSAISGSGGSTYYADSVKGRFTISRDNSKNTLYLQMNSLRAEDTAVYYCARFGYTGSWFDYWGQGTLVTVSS
VL: B2 VL with N53K
notes: Clone of the screen
B9: TP17 (antibody, V domains shown)
VH: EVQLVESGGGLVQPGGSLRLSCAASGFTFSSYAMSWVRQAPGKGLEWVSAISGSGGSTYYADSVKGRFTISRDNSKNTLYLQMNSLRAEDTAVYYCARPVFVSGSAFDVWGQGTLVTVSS
VL: B2 VL
notes: Clone of the screen
B10: TP22 (antibody, V domains shown)
VH: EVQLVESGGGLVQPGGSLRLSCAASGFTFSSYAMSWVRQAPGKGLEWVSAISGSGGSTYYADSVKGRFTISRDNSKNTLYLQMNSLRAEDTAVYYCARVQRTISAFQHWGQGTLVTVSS
VL: B2 VL
notes: Clone of the screen
B11: TP15 (antibody, V domains shown)
VH: QVQLVQSGAEVKKPGASVKVSCKASGYTFTSYGISWVRQAPGQGLEWMGWISAYNGNTNYAQKLQGRVTMTTDESTSTAYMELSSLRSEDTAVYYCARGGAGHYDYFDYWGQGTLVTVSS
VL: QSVLTQPPSVSAAPGQKVTISCSGSSSNIGNNYVSWYQQLPGTAPKLLIYDNNKRPSGIPDRFSGSNSGNTATLTISGTQAMDEADYYCQAWDSSTAWVFGGGTKLTVL
notes: Clone of the screen
B12: TP14 (antibody, V domains shown)
VH: QVQLVQSGAEVKKPGASVKVSCKASGYTFTSYYMHWVRQAPGQGLEWMGIINPSGGSTSYAQKFQGRVTMTRDTSTSTVYMELSSLRSEDTAVYYCARYDHAGGTPFDLWGQGTLVTVSS
VL: QSVLTQPPSVSAAPGQKVTISCSGSSSNIGNNYVSWYQQLPGTAPKLLIYGNSNRPSGVPDRFSGSKSGTSASLAITGLQAEDEADYYCQSYDSSLSGYVFGTGTKVTVL
notes: Clone of the screen
B13: TP10 (antibody, V domains shown)
VH: QVQLVESGGGVVQPGRSLRLSCAASGFTFSSYAMHWVRQAPGKGLEWVAVISYDGSNKYYADSVKGRFTISRDNSKNTLYLQMNSLRAEDTAVYYCARSGRATSYSYYGMDVWGQGTLVTVSS
VL: not shown
B14: TP11 (antibody, V domains shown)
VH: QVQLVESGGGVVQPGRSLRLSCAASGFTFSSYAMHWVRQAPGKGLEWVAVISYDGSNKYYADSVKGRFTISRDNSKNTLYLQMNSLRAEDTAVYYCARGVSGSYARGFDVWGQGTLVTVSS
VL: B1 VL with D70E, Y96W, L104V
B15: TP23 (antibody, V domains shown)
VH: B11 VH with E74T, S84R, E89D
VL: B2 VL
B16: TP31 (antibody, V domains shown)
VH: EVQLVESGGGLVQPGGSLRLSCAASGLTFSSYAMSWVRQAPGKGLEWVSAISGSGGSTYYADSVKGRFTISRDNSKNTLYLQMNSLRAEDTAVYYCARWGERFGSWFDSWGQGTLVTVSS
VL: B2 VL
B17: TP29 (antibody, V domains shown)
VH: EVQLVESGGGVVQPGRSLRLSCAASGFTFSNAWMSWVRQAPGKGLEWVSAISGSGGSTYYADSVKGRFTISRDNSKNTLYLQMNSLRAEDTAVYYCARRALSLSYFDYWGQGTLVTVSS
VL: B2 VL

The binders below were run against T2, human CD27 (human, UniProt P26842 21-192, limits assumed) (assay: mAb titration on human CD27, OD readout).
T2 construct: The construct (soluble form, tags) is not described; also called TNFRSF7
T2 sequence (P26842 21-192 limits assumed): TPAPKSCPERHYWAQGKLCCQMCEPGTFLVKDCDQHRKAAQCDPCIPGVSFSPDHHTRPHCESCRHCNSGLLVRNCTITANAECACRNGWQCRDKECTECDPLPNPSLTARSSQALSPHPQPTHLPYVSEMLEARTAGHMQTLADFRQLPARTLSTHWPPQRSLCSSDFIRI

| Binder | EC50 (read off the curve) [nM] |
| --- | --- |
| B1 | ~0.3 |
| B2 | ~0.1 |

The binders below were run against T2, human CD27 (assay: screen of individual clones, heat map of log (Binding MFI), human CD27 at 25 nM).

| Binder | binding result |
| --- | --- |
| B3 | binds |
| B4 | binds |
| B5 | binds |
| B6 | binds |
| B7 | binds |
| B8 | binds |
| B9 | binds |
| B10 | binds |
| B11 | binds |
| B12 | binds |

The binders below were run against T1, mouse CD27 (assay: screen of individual clones, heat map of log (Binding MFI), mouse CD27 at 25 nM).

| Binder | binding result |
| --- | --- |
| B10 | binds |

The binders below were run against T2, human CD27 (assay: Kd table for the mAb titration on human CD27 (OD readout, Figure 4 A); method not given).

| Binder | Kd [nM] |
| --- | --- |
| B13 | 0.4 |
| B1 | 0.6 |
| B14 | 0.2 |
| B2 | 0.1 |
| B15 | 5 |
| B16 | 1.4 |
| B17 | 0.3 |

What follows are binders tested against T1, mouse CD27 (assay: Kd table for the mAb titration on mouse CD27 (OD readout, Figure 4 B); method not given).

| Binder | Kd [nM] |
| --- | --- |
| B13 | 0.9 |
| B1 | 8 |
| B14 | 0.5 |
| B15 | 40 |
| B17 | 0.7 |
